Results taken from patent publication CN114195889A (NANJING FUJIEKANG BIOTECHNOLOGY CO LTD, dated 2022).

Target: T1, 人源重组SARS-Cov-2-N蛋白 (SARS-CoV-2, UniProt P0DTC9 1-419)
T1 construct: range 1-419; also called SARS-Cov-2-N重组蛋白; 新冠病毒N蛋白
Assay: ELISA dose-response on coated N protein

B1: 纳米抗体1B2 (VHH)
VHH: ESGGGSVQAGGSLKLSCVAFGYTYTSGCMGWFRQAPGKGREGVATICNTDGTTAYANSVKGRFTISQDNAKNTVYLQMNSLKAEDSAMYYCAAGRTPYELASGGKNWGQGTQVTVSS
notes: also called VHH4
binding result: binds
